Results reported in the supplement of paper PMC10567573.

B1: MATN2 (parent)
chain: FIVDILQFLDIGPDVTRVGLLQYG
B2: CROP (parent)
chain: VFGRGDNISDVSKFLEDDKWMEE
B3: SNURF (parent)
chain: QVPVVDFQAELRQAFLAETPRGG

Variants of: B1
Assay: protein stability index of a GFP-peptide fusion (GPS, HEK-293T) (PSI 1-6); higher = more stable
Conditions: c terminus: a fixed tail appended
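Also: lentivirally expressed fusions sorted by FACS into six bins by GFP to DsRed ratio, PSI derived from sequencing read proportions per bin multiplied by bin number.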

Protein stability index of substitutions, site by site:
I11: Y 3.28; S 2.12; T 2.8; C 1.18; M 3.73; G 3.02
D10: E 3.48; W 2.66; T 3.42; R 3.54; L 2.62

Variants of: B2
Assay: as above
Conditions: c terminus: native

Protein stability index of substitutions, site by site:
V1: H 2.59; E 2.97; M 1.84; P 2.76; N 2.25; K 2.73; G 3.63; D 3.13; C 1.97; R 2.37; L 2.48; Q 3; I 1.43; A 2.11

Variants of: B3
Assay: as above
Conditions: c terminus: native

Protein stability index of substitutions, site by site:
Q13: C 1.71; Y 2.73; D 2.15; M 2.42; S 3.53; A 2.68; G 4.32
Q1: S 2.31; N 2.49; T 3.88
G22: E 3.26; I 2.95; D 4.09; V 3.34; K 2.04; N 2.5; F 2.29; H 2.79; C 1.99; S 1.94; L 2.66; T 2.57; R 2.73; Y 2.51; M 1.95
A9: D 2.47
D6: C 4.03; E 4.69; R 2.21; N 3.2
L16: F 2.03; Y 3.57; H 2.13; W 1.96; A 2.42; P 3.02
L11: D 2.77; S 2.27; R 3.83; P 3.34; K 4.47; F 3.51; A 3.6; I 2.03
E18: F 1.67; S 2.02; P 3.59; C 3.41
Q8: V 1.43; T 3.31; Y 2.98; L 3.47; C 3.49; K 5.19
R12: E 2.54; M 3.51; Y 3.86; P 2.89; Q 3.27; N 2.92
V5: A 2.08; I 4.13; F 2.39; H 3.52; L 3.11; D 1.7; W 3.5; T 2.34; S 4.05
A17: I 3.76; S 2; K 3.45
V4: F 3.43; L 2.5; T 2.69; W 2.09; A 3.33; M 3.48
F7: S 3.5; W 2.9; T 4.49
R21: L 2.66; P 3.47; A 4.22; N 2.15; K 1.78
V2: G 2.61; Q 1.5; K 3.98
P20: I 3.38; A 3; Y 3.23; F 2.27; K 2.19; W 3.74; C 1.59
E10: A 1.34; K 2.48; Q 2.59; M 3.19; F 4; P 2.93; D 2.15
G23: I 2.06; S 3.16; T 3.93; W 1.5; H 1.77; Q 2.42; C 1.66; Y 3.06; D 3.97; L 3.09; K 4.37; N 1.92; A 2.38; M 1.71; F 2.27; E 1.85; V 2.52
P3: D 3.02; V 3.01; Q 4.82
A14: H 2.3; E 3.09; F 2.58; K 3.05; D 2.99; P 2.12; L 3.5
F15: Y 1.94; E 2.82; K 2.48; T 3.19; W 2.83; R 1.95; G 3.47
T19: K 3.17; A 3.59; F 2.29; C 3.31; R 1.63
